Experimental data as given in doi:10.1101/2021.12.15.472832.

Target: mouse PARP13 ZnF5-WWE1-WWE2 (residues 476 to 673) (mouse) (UniProt Q3UPF5)
Test: SEC-MALS

- percent of the scattering mass in the dimer peak: 4%
- stoichiometry N: 2
Substance: mouse PARP13 ZnF5-WWE1-WWE2 (residues 476 to 673) (from UniProt Q3UPF5 476-673) (domain or fragment)
